Reference: publication PMC4264537 (Molecular microbiology, 2014)

Biological target: the molecule itself
Assay: cross-linking

B1: CstR (CsoR-like sulfurtransferase repressor), wild type, Staphylococcus aureus strain Newman (natural protein, UniProt Q9XBC0 1-86, looked up)
chain: MNYDKKMINRINRIQGQLNGIIKMMEEGKDCKDVITQISASKSSLQRLMGIIISENLIECVKVAADDEESSQELINEAVNLLVKSK
stoichiometry N: 2
